# Reference: doi:10.1101/2023.01.10.523203 (bioRxiv, 2023)
# Several values for one entry are separate records, joined by “and”; a condition that tells them apart may be missing. Equal entries are not always repeated.
# B1: LZTR1^L580P recombinant protein (LZTR1-Myc-6xHis with p.L580P) (natural protein)
# chain: MAGPGSTGGQIGAAALAGGARSKVAPSVDFDHSCSDSVEYLTLNFGPFETVHRWRRLPPCDEFVGARRSKHTVVAYKDAIYVFGGDNGKTMLNDLLRFDVKDCSWCRAFTTGTPPAPRYHHSAVVYGSSMFVFGGYTGDIYSNSNLKNKNDLFEYKFATGQWTEWKIEGRLPVARSAHGATVYSDKLWIFAGYDGNARLNDMWTIGLQDRELTCWEEVAQSGEIPPSCCNFPVAVCRDKMFVFSGQSGAKITNNLFQFEFKDKTWTRIPTEHLLRGSPPPPQRRYGHTMVAFDRHLYVFGGAADNTLPNELHCYDVDFQTWEVVQPSSDSEVGGAEVPERACASEEVPTLTYEERVGFKKSRDVFGLDFGTTSAKQPTQPASELPSGRLFHAAAVISDAMYIFGGTVDNNIRSGEMYRFQFSCYPKCTLHEDYGRLWESRQFCDVEFVLGEKEECVQGHVAIVTARSRWLRRKITQARERLAQKLEQEAAPVPREAPGVAAGGARPPLLHVAIREAEARPFEVLMQFLYTDKIKYPRKGHVEDVLLIMDVYKLALSFQLCRLEQLCRQYIEASVDLQNVPVVCESAARLQLSQLKEHCLNFVVKESHFNQVIMMKEFERLSSPLIVEIVRRKQQPPPRTPLDQPVDIGTSLIQDMKAYLEGAGAEFCDITLLLDGHPRPAHKAILAARSSYFEAMFRSFMPEDGQVNISIGEMVPSRQAFESMLRYIYYGEVNMPPEDSLYLFAAPYYYGFYNNRLQAYCKQNLEMNVTVQNVLQILEAADKTQALDMKRHCLHIIVHQFTKVSKLPTLRSLSQQLLLDIIDSLASHISDKQCAELGADI
# Molecular target: the molecule itself
# Experiment: SEC
protein,measurement,value
B1,stoichiometry N,6 and 4
